Laboratory results taken from patent publication US5602009, “Dominant negative chimeras of the steroid/thyroid superfamily of receptors” (The Salk Institute for Biological Studies).

Tests used:
[1] = test system: glucocorticoid receptor (hGR) (Homo sapiens); assay: cell_activity; conditions: dexamethasone 1e-7 M, MTV-Luc in CV-1
[2] = target: T1, thyroid hormone receptor alpha (rTRalpha) (Rattus norvegicus, UniProt P63059-2 P63059-2:1-410); assay: cell_activity; T3 100 nM stimulation of tk-TREp-CAT in CV-1; 80% decrease of basal activity without hormone; conditions: tags: RSV expression vector RS-rTRalpha in CV-1 cells
T1 sequence: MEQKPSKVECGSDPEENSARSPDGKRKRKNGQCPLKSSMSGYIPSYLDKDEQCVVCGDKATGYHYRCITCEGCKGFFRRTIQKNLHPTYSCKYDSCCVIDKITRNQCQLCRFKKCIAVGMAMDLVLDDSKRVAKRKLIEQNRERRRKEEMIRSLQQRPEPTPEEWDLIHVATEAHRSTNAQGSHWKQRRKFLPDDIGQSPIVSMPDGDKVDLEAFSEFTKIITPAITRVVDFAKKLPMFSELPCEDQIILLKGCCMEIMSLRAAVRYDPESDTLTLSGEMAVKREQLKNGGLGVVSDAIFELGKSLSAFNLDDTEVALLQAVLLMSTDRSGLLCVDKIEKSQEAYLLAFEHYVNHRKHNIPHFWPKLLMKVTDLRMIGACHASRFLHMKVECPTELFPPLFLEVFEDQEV

[3] = target: T2, retinoic acid receptor alpha (RARalpha) (UniProt P10276 P10276:1-462); assay: cell_activity; 100 nM RA, delta-MTV-TREp-CAT in CV-1
T2 sequence: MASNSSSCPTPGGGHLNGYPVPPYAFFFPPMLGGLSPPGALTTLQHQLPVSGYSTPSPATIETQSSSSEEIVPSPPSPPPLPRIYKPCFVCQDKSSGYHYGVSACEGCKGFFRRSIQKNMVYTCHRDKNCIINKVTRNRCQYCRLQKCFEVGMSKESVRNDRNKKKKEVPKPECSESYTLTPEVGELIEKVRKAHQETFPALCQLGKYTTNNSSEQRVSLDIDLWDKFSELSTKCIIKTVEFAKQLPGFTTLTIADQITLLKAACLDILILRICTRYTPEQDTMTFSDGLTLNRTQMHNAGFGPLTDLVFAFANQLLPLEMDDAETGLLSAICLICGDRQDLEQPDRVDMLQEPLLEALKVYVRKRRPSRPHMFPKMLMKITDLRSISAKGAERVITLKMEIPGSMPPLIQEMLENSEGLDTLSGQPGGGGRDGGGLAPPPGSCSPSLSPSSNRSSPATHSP

For “mouse mammary tumor virus (MTV) promoter”, the activity [1] was 3000 fold.

B1: TREp palindromic thyroid response element (dsDNA)
DNA 1: TCAGGTCATGACCTGA
DNA 2: TCAGGTCATGACCTGA
B1 gave an activity [2] of 20 fold and an activity [3] of 25 fold.
